Changes are numbered by the printed parent chain. In names and notes the source's numbering stands. Values belong to the binder of their own block, whether it stands above or below them.
Target: ubiquitin^TAMRA (C-terminal TAMRA-labelled ubiquitin) (UniProt P0CG48 1-76, TAMRA label at the C-terminus)
Assay: fluorescence polarisation

- Kd: 118 µM
B1: HOIP^RBR-LDD (699–1072), as used in the FP assay (domain or fragment)
chain: CAVCGWALPHNRMQALTSCECTICPDCFRQHFTIALKEKHITDMVCPACGRPDLTDDTQLLSYFSTLDIQLRESLEPDAYALFHKKLTEGVLMRDPKFLWCAQCSFGFIYEREQLEATCPQCHQTFCVRCKRQWEEQHRGRSCEDFQNWKRMNDPEYQAQGLAMYLQENGIDCPKCKFSYALARGGCMHFHCTQCRHQFCSGCYNAFYAKNKCPEPNCRVKKSLHGHHPRDCLFYLRDWTALRLQKLLQDNNVMFNTEPPAGARAVPGGGCRVIEQKEVPNGLRDEACGKETPAGYAGLCQAHYKEYLVSLINAHSLDPATLYEVEELETATERYLHVRPQPLAGEDPPAYQARLLQKLTEEVPLGQSIPRRRK

- Kd: 83 µM
B2: HOIP^RBR-LDD C930A (domain or fragment)
chain: B1 chain with C232A
